Test results taken from patent US20180236024A1 (STC UNM, published 2018).

Tests used:
TLR3 = biological target: T1, TLR3 (UniProt O15455 24-904, limits assumed); assay: co-IP with anti-Flag, GFP-IRGM and Flag-TLR3
T1 construct: also called Flag-TLR3 (Addgene Plasmid 13084)
T1 sequence (looked up): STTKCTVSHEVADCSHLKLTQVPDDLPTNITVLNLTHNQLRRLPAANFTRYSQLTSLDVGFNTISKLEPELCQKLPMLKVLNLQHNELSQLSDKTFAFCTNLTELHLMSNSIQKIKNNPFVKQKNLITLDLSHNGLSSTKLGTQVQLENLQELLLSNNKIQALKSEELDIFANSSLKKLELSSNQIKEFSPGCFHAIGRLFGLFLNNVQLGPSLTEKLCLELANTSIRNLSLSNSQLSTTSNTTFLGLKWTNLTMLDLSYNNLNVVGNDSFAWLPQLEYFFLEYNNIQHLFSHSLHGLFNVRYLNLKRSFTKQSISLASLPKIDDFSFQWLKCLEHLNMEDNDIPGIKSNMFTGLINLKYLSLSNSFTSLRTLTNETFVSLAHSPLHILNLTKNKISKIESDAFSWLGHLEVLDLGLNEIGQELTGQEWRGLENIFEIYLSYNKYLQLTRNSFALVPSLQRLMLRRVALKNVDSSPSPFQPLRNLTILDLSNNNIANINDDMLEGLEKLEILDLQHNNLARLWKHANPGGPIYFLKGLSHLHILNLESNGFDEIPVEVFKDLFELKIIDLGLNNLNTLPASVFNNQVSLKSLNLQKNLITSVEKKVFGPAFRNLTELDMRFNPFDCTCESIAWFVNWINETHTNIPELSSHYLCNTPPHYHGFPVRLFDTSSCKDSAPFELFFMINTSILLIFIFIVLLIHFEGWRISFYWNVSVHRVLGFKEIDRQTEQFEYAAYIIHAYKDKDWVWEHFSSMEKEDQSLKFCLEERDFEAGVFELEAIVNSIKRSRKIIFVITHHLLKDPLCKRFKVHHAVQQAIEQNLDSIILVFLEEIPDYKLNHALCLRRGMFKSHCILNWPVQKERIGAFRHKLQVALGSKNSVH

TLR4 = biological target: T2, TLR4 (UniProt O00206 24-839, limits assumed); assay: co-immunoprecipitation with anti-Flag (Flag-IRGM, tagged TLR4)
T2 construct: also called GFP-TLR4; YFP-TLR4 (Addgene Plasmid 13018)
T2 sequence (O00206 24-839 limits assumed): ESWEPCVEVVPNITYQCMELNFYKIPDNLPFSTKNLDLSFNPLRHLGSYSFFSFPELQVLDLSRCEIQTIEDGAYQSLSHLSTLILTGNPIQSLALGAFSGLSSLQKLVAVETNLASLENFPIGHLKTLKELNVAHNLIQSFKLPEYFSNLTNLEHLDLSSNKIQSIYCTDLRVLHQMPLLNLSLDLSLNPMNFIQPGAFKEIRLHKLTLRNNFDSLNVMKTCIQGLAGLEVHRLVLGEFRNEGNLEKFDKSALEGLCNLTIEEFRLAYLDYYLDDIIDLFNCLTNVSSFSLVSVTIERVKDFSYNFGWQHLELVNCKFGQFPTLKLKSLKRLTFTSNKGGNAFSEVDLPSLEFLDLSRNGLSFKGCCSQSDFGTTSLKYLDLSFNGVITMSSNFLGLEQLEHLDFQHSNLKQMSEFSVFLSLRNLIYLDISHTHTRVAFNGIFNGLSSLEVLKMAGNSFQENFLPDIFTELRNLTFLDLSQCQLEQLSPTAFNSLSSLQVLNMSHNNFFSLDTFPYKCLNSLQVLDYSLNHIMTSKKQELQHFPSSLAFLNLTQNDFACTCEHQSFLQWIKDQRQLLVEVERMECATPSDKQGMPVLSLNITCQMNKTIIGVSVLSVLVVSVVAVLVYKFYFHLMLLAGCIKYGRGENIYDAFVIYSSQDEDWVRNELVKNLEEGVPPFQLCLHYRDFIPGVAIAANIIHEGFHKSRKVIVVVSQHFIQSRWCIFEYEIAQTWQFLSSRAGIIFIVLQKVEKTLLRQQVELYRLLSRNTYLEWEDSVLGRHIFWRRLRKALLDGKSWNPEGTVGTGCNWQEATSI

Rubicon = biological target: T3, Rubicon (UniProt Q92622 1-972, limits assumed); assay: co-immunoprecipitation, HEK293T cells expressing GFP-IRGM
T3 sequence (looked up): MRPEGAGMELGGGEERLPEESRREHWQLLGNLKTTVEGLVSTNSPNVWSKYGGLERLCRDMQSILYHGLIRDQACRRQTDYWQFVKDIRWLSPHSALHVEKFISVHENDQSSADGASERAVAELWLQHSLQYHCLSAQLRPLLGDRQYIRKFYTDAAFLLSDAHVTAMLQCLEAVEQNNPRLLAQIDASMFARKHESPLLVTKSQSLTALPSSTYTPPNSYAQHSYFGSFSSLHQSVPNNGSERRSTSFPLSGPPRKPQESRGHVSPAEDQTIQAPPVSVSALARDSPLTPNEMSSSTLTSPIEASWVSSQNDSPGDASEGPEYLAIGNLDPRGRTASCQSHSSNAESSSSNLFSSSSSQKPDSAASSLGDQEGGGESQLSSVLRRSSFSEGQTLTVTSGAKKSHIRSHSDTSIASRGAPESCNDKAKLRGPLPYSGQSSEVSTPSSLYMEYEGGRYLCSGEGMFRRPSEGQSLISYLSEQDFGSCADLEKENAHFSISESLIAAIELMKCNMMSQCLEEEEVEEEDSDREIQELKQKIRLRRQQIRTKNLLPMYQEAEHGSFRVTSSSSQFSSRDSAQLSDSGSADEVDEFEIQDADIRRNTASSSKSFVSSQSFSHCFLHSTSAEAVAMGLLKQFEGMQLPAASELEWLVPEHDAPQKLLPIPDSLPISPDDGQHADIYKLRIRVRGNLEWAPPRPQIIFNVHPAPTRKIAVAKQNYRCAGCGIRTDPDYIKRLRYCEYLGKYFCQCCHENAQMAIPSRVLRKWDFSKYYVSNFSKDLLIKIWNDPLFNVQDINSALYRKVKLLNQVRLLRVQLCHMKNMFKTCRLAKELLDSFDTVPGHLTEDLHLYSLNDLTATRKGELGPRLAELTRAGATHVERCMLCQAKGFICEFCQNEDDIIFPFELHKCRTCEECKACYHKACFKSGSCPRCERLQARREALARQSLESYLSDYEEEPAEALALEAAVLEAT

binding result (TLR3): binds | binding result (TLR4): no binding | binding result (Rubicon): no binding
B1: IRGM (human IRGM, isoform d) (other, UniProt A1A4Y4-4 1-202, looked up)
chain: MEAMNVEKASADGNLPEVISNIKETLKIVSRTPVNITMAGDSGNGMSTFISALRNTGHEGKASPPTELVKATQRCASYFSSHFSNVVLWDLPGTGSATTTLENYLMEMQFNRYDFIMVASAQFSMNHVMLAKTAEDMGKKFYIVWTKLDMDLSTGALPEVQLLQIRENVLENLQKERLACHEKYLKSTPENSTRPRNINLCS
notes: Stood in cell lysates as GFP-, Flag- or V5-tagged protein or as the endogenous protein, depending on the experiment; Isoform d is said to be used in all experiments; also called GFP-IRGM; GFP-IRGMd
